Measurements taken from patent US11162087B2, “Beta-glucosidase, enzyme composition including same, and method for manufacturing sugar solution using same” (RIKEN, priority 2017, dated 2021).

B1: Mutant 1: His-tagged polypeptide of SEQ ID NO: 6, 88% identity with SEQ ID NO: 1; tested as cell-free extract of transformed E. coli (protein)
chain: QIEGLINVMTLEEKVGQMAQLAIDLFIDVPTDTVIPEAARKGIIDYKIGSILNTYGGVSHSKEVWTYINAEFYKYTEETDLKIPILYGLDSIHGANFVNNFTSFPQQIGMAATFNPSLLKEGSRISAYETRAASVGWVFSPVMDLGLDPRWPRIWEGFGEDPYLSSQFGIASVHGFQGKDPNLIDEFHVAACAKHYLAYSNPFTGKDRTPAILSDIFIREYHLPSFKAAVDAGVASVMVNSGLINGIPTHMNHYLLTTVLKEELGFQGVIVTDWQDIENIHTRDHLAPTQKDAVKLAINAGIDMSMIPYNYDFIDYLIELVHEGEVSIDRINDAVRRILKMKAKMNLWDLPVTKSEDYPEFGSEAHANASYTAASESITLLKNENSTLPLAKNTKVLVVGPNSNSHRSLNGGWSYSWQGNAGVQYAVQYNTIYQAIQKVNGEENTVFSQGVRYIETGNYYEDEEVNISESVALARDVDYIILALGENTYTEKPGDLSDLEISQNQIDLAKALASTGKPIILVLNQGRPRIISRIEQLVSAILWIYWPGNYGGDALADILFGDVNPSGKLPVTYPRYSASLNTRIVSGGSDSFSEGLFIDYKHFDDANITPRYEFGYGLSYTKFNYSRLSVLSTAKSGPATGAVVPGGPSDLFQNVATVTVDIANSGQVTGAEVAQLYITYPSSAPRTPPKQLRGFAKLNLTPGQSGTATFNIRRRDLSYWDTASQKWVVPSGSFGISVGASSRDIRLTSTLSVA
modifications: His tag; amino acid sequence having 88% sequence identity with amino acid sequence of SEQ ID NO 1
notes: tested as cell-free extract of transformed E. coli
B2: partially purified β-glucosidase: His-tag purified elution fraction of SEQ ID NO: 1 β-glucosidase from E. coli cell-free extract, buffer exchanged (Example 7) (protein, listed as Pseudotrichonympha grassii)
chain: QIEGLINVMTLEEKVGQMAQLAIDLFIDVPTDTVIPEAARKGIIDYKIGSILNTYGGVSHSKEVWTYINAEFYKYTEETDLKIPILYGLDSIHGANFVNNFTSFPQQIGMAATFNPSLLKEGSRISAYETRAASVGWVFSPVMDLGLDPRWPRIWEGFGEDPYLSSQFGIASVHGFQGKDPNLIDEFHVAACAKHYLAYSNPFTGKDRTPAILSDIFIREYHLPSFKAAVDAGVASVMVNSGLINGIPTHMNHYLLTTVLKEELGFQGVIVTDWQDIENIHTRDHLAPTQKDAVKLAINAGIDMSMIPYNYDFIDYLIELVHEGEVSIDRINDAVRRILKMKAKMNLWDLPVTKSEDYPEFGSEAHANASYTAASESITLLKNENSTLPLAKNTKVLVVGPNSNSHRSLNGGWSYSWQGNAGVQYAVQYNTIYQAIQKVNGEENTVFSQGVRYIETGNYYEDEEVNISESVALARDVDYIILALGENTYTEKPGDLSDLEISQNQIDLAKALASTGKPIILVLNQGRPRIISRIEQLVSAILWIYWPGNYGGDALADILFGDVNPSGKLPVTYPRYSASLITYWHKYAEEQVGQPGAYDYSSDYNPLWEFGYGLSYTTFNYSNLSVPSTSGMRDVIPVSVLVKNTGEVAGKEVVLLFTSDLYASLAPDVKRLRKFTKILLQPGEEQLVSFNLTSSDLSFIDAQSRRVTETGDFEIKIGGLKGKVTLT
modifications: His-tag
B3: β-glucosidase of the present invention (SEQ ID NO: 1): Polypeptide of SEQ ID NO: 1 from Pseudotrichonympha grassii; in Tables 12/13 measured as the Example 10 composition with Trichoderma cellulase (protein, listed as Pseudotrichonympha grassii)
chain: B2 chain
B4: Comparative Example 1: β-glucosidase derived from the genus Aspergillus filamentous fungus: Aspergillus β-glucosidase (SEQ ID NO: 10) expressed in Trichoderma reesei; measured as enzyme composition … (protein, listed as Aspergillus aculeatus)
chain: DELAFSPPFYPSPWANGQGEWAEAYQRAVAIVSQMTLDEKVNLTTGTGWELEKCVGQTGGVPRLNIGGMCLQDSPLGIRDSDYNSAFPAGVNVAATWDKNLAYLRGQAMGQEFSDKGIDVQLGPAAGPLGRSPDGGRNWEGFSPDPALTGVLFAETIKGIQDAGVVATAKHYILNEQEHFRQVAEAAGYGFNISDTISSNVDDKTIHEMYLWPFADAVRAGVGAIMCSYNQINNSYGCQNSYTLNKLLKAELGFQGFVMSDWGAHHSGVGSALAGLDMSMPGDITFDSATSFWGTNLTIAVLNGTVPQWRVDDMAVRIMAAYYKVGRDRLYQPPNFSSWTRDEYGFKYFYPQEGPYEKVNHFVNVQRNHSEVIRKLGADSTVLLKNNNALPLTGKERKVAILGEDAGSNSYGANGCSDRGCDNGTLAMAWGSGTAEFPYLVTPEQAIQAEVLKHKGSVYAITDNWALSQVETLAKQASVSLVFVNSDAGEGYISVDGNEGDRNNLTLWKNGDNLIKAAANNCNNTIVVIHSVGPVLVDEWYDHPNVTAILWAGLPGQESGNSLADVLYGRVNPGAKSPFTWGKTREAYGDYLVRELNNGNGAPQDDFSEGVFIDYRGFDKRNETPIYEFGHGLSYTTFNYSGLHIQVLNASSNAQVATETGAAPTFGQVGNASDYVYPEGLTRISKFIYPWLNSTDLKASSGDPYYGVDTAEHVPEGATDGSPQPVLPAGGGSGGNPRLYDELIRVSVTVKNTGRVAGDAVPQLYVSLGGPNEPKVVLRKFDRLTLKPSEETVWTTTLTRRDLSNWDVAAQDWVITSYPKKVHVGSSSRQLPLHAALPKVQ
notes: measured as enzyme composition with Trichoderma cellulase

Legend:
[1] = Inhibitory action of glucose on the β-glucosidase activity; type: biochemical; details: 1 mM pNP-Glc, 30° C., 100 minutes
Description: The β-glucosidase derived from a protist of the genus Pseudotrichonympha of the present invention is preferably less likely to suffer from inhibition by glucose on the 3-glucosidase activity. Specifically, when the β-glucosidase activity in the absence of glucose is taken unity, the β-glucosidase activity under a condition of a glucose concentration of 8 g/L (or in the presence of 8 g/L glucose) is preferably 0.5 or more, more preferably 0.6 or more, more preferably 0.7 or more, more preferably 0.8 or more, more preferably 0.9 or more, more preferably 1.0 or more, more preferably 1.1 or more, more preferably 1.2 or more, more preferably 1.3 or more, and in particular preferably 1.4 or more. Further, in addition to the β-glucosidase activity under the condition of the glucose concentration of 8 g/L, when the β-glucosidase activity in the absence of glucose is taken as unity, the β-glucosidase activity under a condition of a glucose concentration of 20 g/L (or in the presence of 20 g/L glucose) is preferably 0.5 or more, more preferably 0.6 or more, and in particular preferably 0.7 or more. The method used herein for measuring the β-glucosidase activity is the same as the above-described method except that 8 g/L or 20 g/L of glucose is added at the time of measuring; and results obtained thereby are used.
An enzyme solution was added to a mixture solution containing 1 mM p-nitrophenyl-β-glucopyranoside (manufactured by Sigma-Aldrich Japan), 50 mM acetic acid buffer and 0, 4, 8 or 20 g/L glucose such that the total amount of the reaction solution became 100 μL, causing a reaction at 30° C. for 100 minutes. Thereafter, 10 μL of 2M sodium carbonate was added and well mixed to stop the reaction, and an increase of absorbance at 405 nm was measured. The activity to release 1 μmol of p-nitrophenol per minute was defined as 1 U. For a blank, 10 μL of 2M sodium carbonate was added to an amount, equivalent to that of the above mixture solution for the reaction solution before addition of the enzyme solution, of a mixture solution containing 1 mM p-nitrophenyl-β-glucopyranoside, 50 mM sodium acetate buffer and 0, 4, 8 or 20 g/L glucose, and mixed well; and then, the enzyme solution was added such that the total solution amount of the blank became 110 μL, causing a reaction at 30° C. for 30 minutes. Thereafter, an increase of absorbance at 405 nm was measured.
In accordance with Reference Example 8, the inhibitory action of glucose on the β-glucosidase activity was measured in enzyme compositions: containing the β-glucosidase and the genus Trichoderma filamentous fungus-derived cellulase prepared in Example 10; and the cell-free extract of β-glucosidase mutant gene transformed E. coli prepared in Example 5. For a comparative control, only the genus Trichoderma filamentous fungus-derived cellulase was used, and the inhibitory action of glucose on the β-glucosidase activity was measured in the same manner. […] That is, both of the enzyme composition containing the β-glucosidase of the present invention and the genus Trichoderma filamentous fungus-derived cellulase, and the cell-free extract of β-glucosidase mutant gene transformed E. coli were less likely to suffer from inhibition on the β-glucosidase activity by glucose, compared to only the genus Trichoderma filamentous fungus-derived cellulase, and the enzyme composition of Comparative Example 1 containing the genus Aspergillus filamentous fungus-derived β-glucosidase and the genus Trichoderma filamentous fungus-derived cellulase.

[2] = β-glucosidase activity measurement with pNP-Glc; type: biochemical
Method: In the present invention, “β-glucosidase” means an enzyme that catalyzes a reaction for hydrolysis degradation of a sugar β-glucoside bond. In the present invention, a method for measuring a β-glucosidase activity utilizes a reaction using p-nitrophenyl-β-D-glucopyranoside (pNP-Glc) as a substrate. Specifically, an enzyme liquid is added to a substrate solution prepared by dissolving pNP-Glc in 50 mM acetic acid-sodium acetate buffer solution (pH 5.0) and reacted at 30° C. for 10 minutes; and the reaction is stopped by well mixing with 2M sodium carbonate in an amount equivalent to one-tenth of a reaction system volume to measure an increase of the absorbance at 405 nm. When p-nitrophenol is released and the absorbance at 405 nm is increased after the above reaction, it is determined that the β-glucosidase activity is present.
10 μL of an enzyme diluted solution was added to and reacted with 90 μL of 50 mM acetic acid buffer containing 1 mM p-nitrophenyl-β-glucopyranoside (manufactured by Sigma-Aldrich Japan) at 30° C. for 10 minutes. Thereafter, 10 μL of 2M sodium carbonate was added and well mixed to stop the reaction, and an increase of absorbance at 405 nm was measured. The activity to release 1 μmol of p-nitrophenol per minute was defined as 1 U. For a blank, 10 μL of 2M sodium carbonate was added to and well mixed with 90 μL of 50 mM sodium acetate buffer containing 1 mM p-nitrophenyl-β-glucopyranoside, and thereafter, 10 μL of an enzyme diluted solution was added to cause a reaction at 30° C. for 30 minutes. Thereafter, an increase of absorbance at 405 nm was measured. At this time, the enzyme liquid was diluted so as not to exceed an absorbance at 405 nm of 1. In addition, a calibration curve was created based on absorbances measured by preparing p-nitrophenol solutions at concentrations of 0.1 mM, 0.2 mM, 1 mM and 2 mM; using 10 μL of them instead of an enzyme diluted solution; and adding and well mixing 10 μL of 2M sodium carbonate for color development.

Row | Molecule | BGL activity (relative value) in the presence of 8 g/L glucose when BGL activity in the absence of glucose is taken as unity [1] | BGL activity (relative value) in the presence of 20 g/L glucose when BGL activity in the absence of glucose is taken as unity [1] | Increase of absorbance (405 nm) ([2]; cell-free extract, volume reduced to one-twelfth by ultrafilter membrane, detection limit 0.075) | β-glucosidase activity per 1 mg of protein ([2]; 1 mM pNP-Glc, 50 mM acetic acid buffer, 30° C., 10 minutes, 1 U = 1 μmol p-nitrophenol per minute)
1 | B1 | 0.71 | 0.70 | 0.307 | 
2 | B2 |  |  |  | 3.50 U per 1 mg of protein
3 | B3 | 1.49 | 0.94 |  | 
4 | B4 | 0.46 | 0.20 |  | 
